How the values were obtained:
Assay in all cases: cell-based or functional assay
neuropsin = molecular target: neuropsin
chymotrypsin = molecular target: chymotrypsin
human α-thrombin (human) = human α-thrombin (human) (UniProt P00734)

- inhibition of amidolytic activity (chromogenic substrate, 405 nm) (neuropsin): 70%
- inhibition of amidolytic activity (chromogenic substrate, 405 nm) (chymotrypsin): 25%
- inhibition of amidolytic activity (chromogenic substrate, 405 nm) (human α-thrombin (human)): 55%
Substance: 6xHis-PEBP (recombinant mouse PEBP with a 6xHis-tag at the N-terminus) (from UniProt P70296 2-187)

Source: patent US20060177432A1
